The text below walks through data of patent publication US20170145069A1 (Novo Nordisk, published 2017).

The chains are these.
B1: GLP-1 derivative of Example 26 (Chem. 45), N^eps26,N^eps37-diacylated [Imp^7,Aib^8,Arg^34,Lys^37]-GLP-1-(7-37)-peptide (peptide)
peptide: XXEGTFTSDVSSYLEGQAAKEFIAWLVRGRK
modifications: Imp (imidazopropionyl, des-amino histidine) at 7; Aib at 8; eps-amino of Lys26 and Lys37 each acylated with 12-(4-carboxyphenoxy)dodecanoyl-gGlu-Ser-Ser-Gly-Ser-Ser-Gly

*1 amine or outer side, *2 acyl side, *3 side chain or, on linkers, in order; H or OH if unused. Where no end group is shown, it is not given here. Side-chain parts run from the residue outwards. [ ]: non-standard residue; d: D form. The star is where a group is joined. Undecanoyl(11-OPh(4-COOH)) = O=C(O)c1ccc(OCCCCCCCCCCC(=O)*)cc1; Decanoyl(10-(4-HOOC-PhO)) = O=C(O)c1ccc(OCCCCCCCCCC(=O)*)cc1; γGlu = O=C(O)[C@H](CCC(=O)[*:2])N[*:1]; εLys = N[C@@H](CCCCN[*:1])C(=O)[*:2]; 13‑carboxytridecanoyl = C14 diacid; AEEA = NCCOCCOCC(=O)O; Aib = CC(C)(N)C(=O)O

For one test, the target named is T1, human GLP-1 receptor (human, UniProt P43220 24-463). Description: cell-based or functional assay.
As to B1, the “In vitro potency (AlphaScreen cAMP; membranes) EC50” value came to 0.446 nM.

With HAEGTFTSDVSK([Gly-Ser-Ser-Gly-Ser-Ser-γGlu-Decanoyl(10-(4-HOOC-PhO))])YLEEQAAK([Gly-Ser-Ser-Gly-Ser-Ser-γGlu-Decanoyl(10-(4-HOOC-PhO))])EFIAWLVQGRG, the “In vitro potency (AlphaScreen cAMP; membranes) EC50” value is 0.095 nM.

H[Aib]EGTFTSDVSK([εLys-Ser-Ser-Ser-Ser-Ser-Ser-γGlu-Undecanoyl(11-OPh(4-COOH))])YLEGQAAK([εLys-Ser-Ser-Ser-Ser-Ser-Ser-γGlu-Undecanoyl(11-OPh(4-COOH))])EFIAWLVQGRG: the “In vitro potency (AlphaScreen cAMP; membranes) EC50” value turned out to be 0.181 nM.

For the molecule HAEGTFTSDVSSYLEGQAAK([AEEA-AEEA-γGlu-Decanoyl(10-(4-HOOC-PhO))])EFIAWLVRGRK([AEEA-AEEA-γGlu-Decanoyl(10-(4-HOOC-PhO))])E [Comparative compound of Example 4a: Compound of Example 46, Chem. 65, in WO 2011/080103], the “In vitro potency (AlphaScreen cAMP; membranes) EC50” value came to 0.101 nM.

Take H[Aib]EGTFTSDVSK([Gly-Ser-Ser-Gly-Ser-Ser-Gly-Ser-Ser-Gly-Ser-Ser-γGlu-Undecanoyl(11-OPh(4-COOH))])YLEGQAAK([Gly-Ser-Ser-Gly-Ser-Ser-Gly-Ser-Ser-Gly-Ser-Ser-γGlu-Undecanoyl(11-OPh(4-COOH))])EFIAWLVQGRG: the “In vitro potency (AlphaScreen cAMP; membranes) EC50” value was 0.171 nM.

Turning to H[Aib]EGTFTSDVSK([εLys-Gly-Ser-Ser-Gly-Ser-Ser-Gly-Ser-Ser-Gly-Ser-Ser-Gly-Ser-Ser-Gly-Ser-Ser-γGlu-Undecanoyl(11-OPh(4-COOH))])YLEGQAAK([εLys-Gly-Ser-Ser-Gly-Ser-Ser-Gly-Ser-Ser-Gly-Ser-Ser-Gly-Ser-Ser-Gly-Ser-Ser-γGlu-Undecanoyl(11-OPh(4-COOH))])EFIAWLVQGRG, the “In vitro potency (AlphaScreen cAMP; membranes) EC50” value was determined as 0.486 nM.

Turning to HAEGTFTSDVSSYLEGQAAK([Gly-Ser-Ser-Gly-Ser-Ser-γGlu-Decanoyl(10-(4-HOOC-PhO))])EFIAWLVRGRK([Gly-Ser-Ser-Gly-Ser-Ser-γGlu-Decanoyl(10-(4-HOOC-PhO))])E, the “In vitro potency (AlphaScreen cAMP; membranes) EC50” value came out at 0.048 nM.

As to HAEGTFTSDVSSYLEGQAAK([AEEA-AEEA-γGlu-Decanoyl(10-(4-HOOC-PhO))])EFIAHLVQGRK([AEEA-AEEA-γGlu-Decanoyl(10-(4-HOOC-PhO))]) [Comparative compound of Example 3a: Compound of Example 33, Chem. 52, in WO 2011/080103], the “In vitro potency (AlphaScreen cAMP; membranes) EC50” value came out at 0.506 nM.

H[Aib]EGTFTSDVSK([AEEA-AEEA-γGlu-13‑carboxytridecanoyl])YLEGQAAK([AEEA-AEEA-γGlu-13‑carboxytridecanoyl])EFIAWLVQGRG [Comparative compound of Example 22a: Compound of Example 141, Chem. 189, in WO 2012/062803]: the “In vitro potency (AlphaScreen cAMP; membranes) EC50” value turned out to be 1.14 nM.

A further test deals with T1, human GLP-1 receptor. Kind of test: cell-based or functional assay. The source holds these as a separate data set.
For the molecule B1, the “In vitro potency (CRE-luciferase) low albumin EC50” value was 0.0058 nM.

On to HAEGTFTSDVSK([Gly-Ser-Ser-Gly-Ser-Ser-γGlu-Decanoyl(10-(4-HOOC-PhO))])YLEEQAAK([Gly-Ser-Ser-Gly-Ser-Ser-γGlu-Decanoyl(10-(4-HOOC-PhO))])EFIAWLVQGRG, for which the “In vitro potency (CRE-luciferase) low albumin EC50” value was found to be 0.0053 nM.

As for H[Aib]EGTFTSDVSK([εLys-Ser-Ser-Ser-Ser-Ser-Ser-γGlu-Undecanoyl(11-OPh(4-COOH))])YLEGQAAK([εLys-Ser-Ser-Ser-Ser-Ser-Ser-γGlu-Undecanoyl(11-OPh(4-COOH))])EFIAWLVQGRG, the “In vitro potency (CRE-luciferase) low albumin EC50” value was found to be 0.011 nM.

With HAEGTFTSDVSSYLEGQAAK([AEEA-AEEA-γGlu-Decanoyl(10-(4-HOOC-PhO))])EFIAWLVRGRK([AEEA-AEEA-γGlu-Decanoyl(10-(4-HOOC-PhO))])E [Comparative compound of Example 4a: Compound of Example 46, Chem. 65, in WO 2011/080103], the “In vitro potency (CRE-luciferase) low albumin EC50” value came out at 0.04 nM.

Regarding H[Aib]EGTFTSDVSK([Gly-Ser-Ser-Gly-Ser-Ser-Gly-Ser-Ser-Gly-Ser-Ser-γGlu-Undecanoyl(11-OPh(4-COOH))])YLEGQAAK([Gly-Ser-Ser-Gly-Ser-Ser-Gly-Ser-Ser-Gly-Ser-Ser-γGlu-Undecanoyl(11-OPh(4-COOH))])EFIAWLVQGRG, the “In vitro potency (CRE-luciferase) low albumin EC50” value came to 0.029 nM.

Take H[Aib]EGTFTSDVSK([εLys-Gly-Ser-Ser-Gly-Ser-Ser-Gly-Ser-Ser-Gly-Ser-Ser-Gly-Ser-Ser-Gly-Ser-Ser-γGlu-Undecanoyl(11-OPh(4-COOH))])YLEGQAAK([εLys-Gly-Ser-Ser-Gly-Ser-Ser-Gly-Ser-Ser-Gly-Ser-Ser-Gly-Ser-Ser-Gly-Ser-Ser-γGlu-Undecanoyl(11-OPh(4-COOH))])EFIAWLVQGRG: the “In vitro potency (CRE-luciferase) low albumin EC50” value worked out at 0.047 nM.

On to HAEGTFTSDVSSYLEGQAAK([Gly-Ser-Ser-Gly-Ser-Ser-γGlu-Decanoyl(10-(4-HOOC-PhO))])EFIAWLVRGRK([Gly-Ser-Ser-Gly-Ser-Ser-γGlu-Decanoyl(10-(4-HOOC-PhO))])E, for which the “In vitro potency (CRE-luciferase) low albumin EC50” value turned out to be 0.008 nM.

As for HAEGTFTSDVSSYLEGQAAK([AEEA-AEEA-γGlu-Decanoyl(10-(4-HOOC-PhO))])EFIAHLVQGRK([AEEA-AEEA-γGlu-Decanoyl(10-(4-HOOC-PhO))]) [Comparative compound of Example 3a: Compound of Example 33, Chem. 52, in WO 2011/080103], the “In vitro potency (CRE-luciferase) low albumin EC50” value worked out at 0.124 nM.

With H[Aib]EGTFTSDVSK([AEEA-AEEA-γGlu-13‑carboxytridecanoyl])YLEGQAAK([AEEA-AEEA-γGlu-13‑carboxytridecanoyl])EFIAWLVQGRG [Comparative compound of Example 22a: Compound of Example 141, Chem. 189, in WO 2012/062803], the “In vitro potency (CRE-luciferase) low albumin EC50” value is 0.174 nM.

Another test deals with T1, human GLP-1 receptor. Description: SPA, displacement of 125I-GLP-1(7-36)NH2, BHK membranes, 0.001% HSA. The procedure:
Test compounds, membranes, SPA-particles and [¹²⁵I] ]-GLP-1(7-36)NH₂ were diluted in assay buffer. 50 ul (micro liter) buffer (“low albumin” experiment containing 0.001% HSA) was added to Optiplate, and 25 ul of test compounds were added. 5-10 μg membrane protein/sample was added (50 μl) corresponding to 0.1-0.2 mg protein/ml (to be preferably optimised for each membrane preparation). SPA-particles (Wheatgerm agglutinin SPA beads, Perkin Elmer, #RPNQ0001) were added in an amount of 0.5 mg/well (50 μl). The incubation was started with [¹²⁵I]-GLP-1]-(7-36)NH₂ (final concentration 0.06 nM corresponding to 49.880 DPM, 25 μl). The plates were sealed with PlateSealer and incubated for 120 minutes at 30° C. while shaking. The plates were centrifuged (1500 rpm, 10 min) and counted in Topcounter.
The IC₅₀ value was read from the curve as the concentration which displaces 50% of ¹²⁵I-GLP-1 from the receptor.
For the molecule B1, the IC50 was determined as 0.53 nM.

HAEGTFTSDVSK([Gly-Ser-Ser-Gly-Ser-Ser-γGlu-Decanoyl(10-(4-HOOC-PhO))])YLEEQAAK([Gly-Ser-Ser-Gly-Ser-Ser-γGlu-Decanoyl(10-(4-HOOC-PhO))])EFIAWLVQGRG: the IC50 came out at 1.63 nM.

H[Aib]EGTFTSDVSK([εLys-Ser-Ser-Ser-Ser-Ser-Ser-γGlu-Undecanoyl(11-OPh(4-COOH))])YLEGQAAK([εLys-Ser-Ser-Ser-Ser-Ser-Ser-γGlu-Undecanoyl(11-OPh(4-COOH))])EFIAWLVQGRG yielded an IC50 of 0.42 nM.

The molecule HAEGTFTSDVSSYLEGQAAK([AEEA-AEEA-γGlu-Decanoyl(10-(4-HOOC-PhO))])EFIAWLVRGRK([AEEA-AEEA-γGlu-Decanoyl(10-(4-HOOC-PhO))])E [Comparative compound of Example 4a: Compound of Example 46, Chem. 65, in WO 2011/080103] displayed a half-inhibitory concentration (IC50) of 2.77 nM.

Consider H[Aib]EGTFTSDVSK([Gly-Ser-Ser-Gly-Ser-Ser-Gly-Ser-Ser-Gly-Ser-Ser-γGlu-Undecanoyl(11-OPh(4-COOH))])YLEGQAAK([Gly-Ser-Ser-Gly-Ser-Ser-Gly-Ser-Ser-Gly-Ser-Ser-γGlu-Undecanoyl(11-OPh(4-COOH))])EFIAWLVQGRG, for which the IC50 is 1.34 nM.

For the molecule H[Aib]EGTFTSDVSK([εLys-Gly-Ser-Ser-Gly-Ser-Ser-Gly-Ser-Ser-Gly-Ser-Ser-Gly-Ser-Ser-Gly-Ser-Ser-γGlu-Undecanoyl(11-OPh(4-COOH))])YLEGQAAK([εLys-Gly-Ser-Ser-Gly-Ser-Ser-Gly-Ser-Ser-Gly-Ser-Ser-Gly-Ser-Ser-Gly-Ser-Ser-γGlu-Undecanoyl(11-OPh(4-COOH))])EFIAWLVQGRG, the concentration for half-maximal inhibition (IC50) turned out to be 4.87 nM.

As to HAEGTFTSDVSSYLEGQAAK([Gly-Ser-Ser-Gly-Ser-Ser-γGlu-Decanoyl(10-(4-HOOC-PhO))])EFIAWLVRGRK([Gly-Ser-Ser-Gly-Ser-Ser-γGlu-Decanoyl(10-(4-HOOC-PhO))])E, the IC50 is 0.58 nM.

Consider HAEGTFTSDVSSYLEGQAAK([AEEA-AEEA-γGlu-Decanoyl(10-(4-HOOC-PhO))])EFIAHLVQGRK([AEEA-AEEA-γGlu-Decanoyl(10-(4-HOOC-PhO))]) [Comparative compound of Example 3a: Compound of Example 33, Chem. 52, in WO 2011/080103], for which the half-inhibitory concentration (IC50) stood at 51.5 nM.

For H[Aib]EGTFTSDVSK([AEEA-AEEA-γGlu-13‑carboxytridecanoyl])YLEGQAAK([AEEA-AEEA-γGlu-13‑carboxytridecanoyl])EFIAWLVQGRG [Comparative compound of Example 22a: Compound of Example 141, Chem. 189, in WO 2012/062803], the IC50 was 48.4 nM.
